The text below walks through data of US6541212.

The Kd is the constant that tells how readily two partners part at equilibrium. For orientation: kon means a measure of how fast the partners come together.

In the assay the target is T1, recombinant secreted soluble PSCA with a C-terminal 6XHis and MYC tag (human) (UniProt O43653).
T1 sequence: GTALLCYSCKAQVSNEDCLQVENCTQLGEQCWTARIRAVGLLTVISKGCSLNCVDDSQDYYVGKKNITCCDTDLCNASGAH
The assay is described as follows: SPR (BIAcore), recombinant PSCA immobilized at 30 RU, mAb in solution. For orientation: Surface plasmon resonance follows binding to a sensor surface in real time, without labels.

B1: anti-PSCA monoclonal antibody 1G8 (antibody, part only; not given: light chain, V domains shown, part only)
VH: CFFLMAVVIGVNSEVQLQQSGAELVRSGASVKLSCTASGFNIKDYYIHWVNQRPDQGLEWIGWIDPENGDTEFVPKFQGKATMTADIFSNTAYLHLSSLTSEDTAVYYCKTGGFWGQGTLVTVSAAKTTPPSVYPL
On to B1, for which the dissociation constant (Kd) came out at 1 nM and the on-rate constant (kon) is 168000 M⁻¹ s⁻¹.
